According to US20250154283A1 (published 2025):

Experiments:
[1] = target: T1, His-StrepTagII-HRV3C-cyno VWF-CK-HA-tag (cynomolgus monkey); experiment: solution-phase equilibrium binding, unbound antibody by ELISA
T1 construct: also called recombinant cyno CK domain; cyno CK
T1 chain: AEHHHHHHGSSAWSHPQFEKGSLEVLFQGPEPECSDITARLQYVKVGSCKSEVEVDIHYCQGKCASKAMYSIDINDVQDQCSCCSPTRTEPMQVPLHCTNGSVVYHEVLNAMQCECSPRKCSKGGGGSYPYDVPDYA

[2] = target: T2, human plasma-derived von Willebrand Factor (VWF) (human, UniProt P04275 764-2813); experiment: VWF:FVIIIB enzyme immunoassay, FVIII binding capacity of plasma VWF after incubation with 200 or 600 nM antibody; FVIII as the partner tested
T2 construct: also called pd-VWF; human plasma-derived VWF

Binder	fold change in Kd, cyno CK against human CK [1]	VWF:FVIII level (% of untreated donor-matched plasma) [2]
Lib1_P1_G3 OA (antibody, human IgG4 S228P, kappa, F234A L235A, monovalent one-arm human IgG4) heavy: QVQLVQSGAEVKKPGASVKVSCKVSGYTSRQYIHWVRQAPGKGLEWMGWVTPIFGTTNYAQKFQGRVTMTEDTSTDTAYMELSSLKSEDTAVYYCAREWTGTTAFDIWGQGTLVTVSSASTKGPSVFPLAPCSRSTSESTAALGCLVKDYFPEPVTVSWNSGALTSGVHTFPAVLQSSGLYSLSSVVTVPSSSLGTKTYTCNVDHKPSNTKVDKRVESKYGPPCPPCPAPEAAGGPSVFLFPPKPKDTLMISRTPEVTCVVVDVSQEDPEVQFNWYVDGVEVHNAKTKPREEQFNSTYRVVSVLTVLHQDWLNGKEYKCKVSNKGLPSSIEKTISKAKGQPREPQVYTLPPSQEEMTKNQVSLSCAVKGFYPSDIAVEWESNGQPENNYKTTPPVLDSDGSFFLVSRLTVDKSRWQEGNVFSCSVMHEALHNHYTQKSLSLSLG ESKYGPPCPPCPAPEAAGGPSVFLFPPKPKDTLMISRTPEVTCVVVDVSQEDPEVQFNWYVDGVEVHNAKTKPREEQFNSTYRVVSVLTVLHQDWLNGKEYKCKVSNKGLPSSIEKTISKAKGQPREPQVYTLPPSQEEMTKNQVSLWCLVKGFYPSDIAVEWESNGQPENNYKTTPPVLDSDGSFFLYSRLTVDKSRWQEGNVFSCSVMHEALHNHYTQKSLSLSLG light: DIQMTQSPSSVSASVGDRVTITCRASQDIGHYLAWYQQKPGKAPKLLIYAASNRASGVPSRFSGSGSGTDFTLTISSLQPEDFANYYCQQGYSAPYGFGGGTKVEIKRTVAAPSVFIFPPSDEQLKSGTASVVCLLNNFYPREAKVQWKVDNALQSGNSQESVTEQDSKDSTYSLSSTLTLSKADYEKHKVYACEVTHQGLSSPVTKSFNRGEC	< 2 fold	> 80%
Lib1_P1_A6 OA (antibody, human IgG4 S228P, kappa, F234A L235A, monovalent one-arm human IgG4; also called monovalent (one-arm) Lib1_P1_A6) heavy: QVQLVQSGAEVKKPGASVKVSCKVSGSTFSNYAIHWVRQAPGKGLEWMGGIVPLSGTAIYAQKFQGRVTMTEDTSTDTAYMELSSLKSEDTAVYYCARDQGESSGWYAIYYGMDVWGQGTTVTVSSASTKGPSVFPLAPCSRSTSESTAALGCLVKDYFPEPVTVSWNSGALTSGVHTFPAVLQSSGLYSLSSVVTVPSSSLGTKTYTCNVDHKPSNTKVDKRVESKYGPPCPPCPAPEAAGGPSVFLFPPKPKDTLMISRTPEVTCVVVDVSQEDPEVQFNWYVDGVEVHNAKTKPREEQFNSTYRVVSVLTVLHQDWLNGKEYKCKVSNKGLPSSIEKTISKAKGQPREPQVYTLPPSQEEMTKNQVSLSCAVKGFYPSDIAVEWESNGQPENNYKTTPPVLDSDGSFFLVSRLTVDKSRWQEGNVFSCSVMHEALHNHYTQKSLSLSLG ESKYGPPCPPCPAPEAAGGPSVFLFPPKPKDTLMISRTPEVTCVVVDVSQEDPEVQFNWYVDGVEVHNAKTKPREEQFNSTYRVVSVLTVLHQDWLNGKEYKCKVSNKGLPSSIEKTISKAKGQPREPQVYTLPPSQEEMTKNQVSLWCLVKGFYPSDIAVEWESNGQPENNYKTTPPVLDSDGSFFLYSRLTVDKSRWQEGNVFSCSVMHEALHNHYTQKSLSLSLG light: DIQMTQSPSSVSASVGDRVTITCRASQGIGTWLAWYQQKPGKAPKLLIYGSSSRASGVPSRFSGSGSGTDFTLTISSLQPEDFANYYCQQSYGKPTFGGGTKVEIKRTVAAPSVFIFPPSDEQLKSGTASVVCLLNNFYPREAKVQWKVDNALQSGNSQESVTEQDSKDSTYSLSSTLTLSKADYEKHKVYACEVTHQGLSSPVTKSFNRGEC	< 2 fold	> 80%
